# B1: HisA_Afer (Acidimicrobium ferrooxidans DSM 10331) (protein)
# chain: MELVVAVDLLDGEAVRLRQGRFDAPRRFGDPRRYVEGALDAGARWFHVVDLDRARTPGDRRNADMVGDLIALVREAGGSVEVGGGVRTARDIAELLETGASRVVLGTALVEETLDELDPEHLVAALDYRRGDEGALEVVVSAWERSGGRRLLEASARLFARGVRTQLLTDVGRDGMASGPDLGTYQGLCEVVPVEVIASGGVASADDLAKLAAIRGARGAVWGAVVGTALLDGSLGFDEALSACRA
# notes: codon-optimised synthetic gene in pET22b (NdeI/HindIII), expressed in E. coli, purified
# Substrate: NC(=O)c1ncn([C@@H]2O[C@H](COP(=O)(O)O)[C@@H](O)[C@H]2O)c1N=CN[C@@H]1O[C@H](COP(=O)(O)O)[C@@H](O)[C@H]1O
# Assay: purified protein
# Type: biochemical, Acidimicrobium ferrooxidans
protein,measurement,value
B1,Km,1.1 ± 0.2 µM
same,kcat,0.05 ± 0.001 s⁻¹
same,kcat/Km,45000 M⁻¹ s⁻¹
